Data on three substances can be found in publication PMC6687723.

Broadly, the Kd is the constant that tells how readily two partners part at equilibrium. A high value points to weaker binding. One may read the stoichiometry N as the number of molecules, sites or subunits per partner or assembly. What is called IC50 is the concentration at which inhibition is half-maximal. Higher therefore signals lower potency.

Experiment [1] has as its target Hsp70 (SBD), residues 394-540 (human) (UniProt P0DMV8). Put plainly: ITC; AR protein (100-200 µM) in the syringe titrated into 10-20 µM chaperone in the cell; 25 °C; 25 mM HEPES, 5 mM MgCl2, 10 mM KCl pH 7.5; one or two-site binding model; no nucleotides. Background: In ITC the heat of successive injections is recorded.
Experiment [2] has as its target human Hsp40 (DNAJA2), full length (human) (UniProt O60884). The experiment is described as above.
Experiment [3] deals with Hsp70SBD (HSPA1A), truncated form, residues 394-509 (human) (UniProt P0DMV8). Put plainly: fluorescence polarisation; competition: 2 µM Hsp70SBD and 25 nM FAM-LVEALY with varying concentrations of AR protein, 30 min at room temperature; 100 mM Tris, 20 mM KCl, 6 mM MgCl2 pH 7.4; no nucleotides. On the technique in general: In fluorescence polarisation assays a small probe gives low polarisation when free and higher when bound to something large.

Experiment [4] concerns the target androgen receptor N-terminal domain construct NTD_(1-155) (human) (UniProt P10275). Put plainly: NMR titration; 1H,15N-HSQC of 33 µM 15N-labelled NTD construct with 16.5 or 33 µM (0.5 or 1 molar equivalents) unlabelled Hsp70 or Hsp40; 5 °C; 20 mM phosphate pH 7.4, 1 mM TCEP, 10% D2O; no added nucleotides.

On to “androgen receptor N-terminal domain construct NTD_(1-155) (from UniProt P10275 1-155) (domain or fragment)”, for which the Kd stood at 5 µM in experiment [1] and 3.3 µM in experiment [2]. In experiment [2], this substance returned a stoichiometry N of 0.49. The substance also displayed an IC50 in experiment [3] of 1.7 µM.

Take “human Hsp40 (DNAJA2), full length (from UniProt O60884 1-412) (natural protein)”: the I/I0 of NTD (1-155) signals at 1 molar equivalent in experiment [4] is 0.3.

Take “human Hsp70 (HSPA1A), full length (from UniProt P0DMV8 1-641) (natural protein)”: the I/I0 of NTD (1-155) signals at 1 molar equivalent in experiment [4] was determined as 0.3.
